Test results: patent publication US20260166158A1, “HSP90-BINDING CONJUGATES AND FORMULATIONS THEREOF” (Fusion Pharmaceuticals Inc., priority 2019, published 2026)

Tested on: NCI-H460 tumor-bearing mice (lung cancer)
Assay: Biodistribution: lutetium accumulation in tumor, plasma and healthy tissues by ICP-MS
Format: in vivo
Details: for T/K (Tumor/Kidney ratio) / T/L (Tumor/Liver ratio) / T/P (Tumor/Plasma ratio) / Kidney uptake, % ID/g 24 h / Liver uptake, % ID/g 24 h / Plasma, % ID/g 24 h / Tumor uptake, % ID/g, 24 h / % ID/g uptake, H460 tumor, 24 h / % ID/g uptake, Kidney, 24 h / % ID/g uptake, Liver, 24 h / % ID/g uptake, Plasma, 24 h: 24 h; for Kidney uptake, % ID/g 24 h / Liver uptake, % ID/g 24 h / Plasma, % ID/g 24 h / Tumor uptake, % ID/g, 24 h: second table; for % ID/g uptake, H460 tumor, 24 h / % ID/g uptake, H460 tumor, 72 h / % ID/g uptake, Kidney, 24 h / % ID/g uptake, Kidney, 72 h / % ID/g uptake, Liver, 24 h / % ID/g uptake, Liver, 72 h / % ID/g uptake, Plasma, 24 h / % ID/g uptake, Plasma, 72 h: 0.5 mg/kg lutetium conjugate
Description: Lutetium accumulation was measured in tumor, plasma and healthy tissues of NCI-H460 tumor-bearing mice (lung cancer). NCJ-H460 tumor bearing mice were dosed with 0.5 mg/kg of lutetium conjugates. At the time points indicated, mice were sacrificed and tumor, liver, kidneys and plasma were taken. All tissues were analyzed for lutetium content by ICP-MS, and lutetium uptake in % ID/g determined by the following equation: […]
Biodistribution at 24 h and Tumor/Kidney ratio (T/K), Tumor/Liver ratio (T/L), Tumor/Plasma ratio (T/P) are give in the table below.

SMILES	T/K (Tumor/Kidney ratio)	T/L (Tumor/Liver ratio)	T/P (Tumor/Plasma ratio)	Kidney uptake, % ID/g 24 h [% ID/g]	Liver uptake, % ID/g 24 h [% ID/g]	Plasma, % ID/g 24 h [% ID/g]	Tumor uptake, % ID/g, 24 h [% ID/g]	% ID/g uptake, H460 tumor, 24 h [% ID/g]	% ID/g uptake, H460 tumor, 72 h [% ID/g]	% ID/g uptake, Kidney, 24 h [% ID/g]	% ID/g uptake, Kidney, 72 h [% ID/g]	% ID/g uptake, Liver, 24 h [% ID/g]	% ID/g uptake, Liver, 72 h [% ID/g]	% ID/g uptake, Plasma, 24 h [% ID/g]	% ID/g uptake, Plasma, 72 h [% ID/g]
CCNC(=O)c1nnc(-c2cc(C(C)C)c(O)cc2O)n1-c1ccc(C2CCN(C(=O)CCOCCOCCOCCOCCOCCOCCOCCOCCOCCOCCOCCOCCNC(=O)CN3CCN4CCN5CCN(CC3)CC(=O)[O][Lu]([O]C(=O)C4)[O]C(=O)C5)CC2)cc1 [CMP33]	2.05	3.64	5.11	1.62	0.91	0.65	3.32	–	–	–	–	–	–	–	–
CCNC(=O)c1nnc(-c2cc(C(C)C)c(O)cc2O)n1-c1ccc(CC2CCN(C(=O)CCOCCOCCOCCOCCOCCOCCOCCOCCOCCOCCOCCOCCNC(=O)CN3CCN4CCN5CCN(CC3)CC(=O)[O][Lu]([O]C(=O)C4)[O]C(=O)C5)CC2)cc1 [CMP34]	3.96	3.06	5.54	1.12	1.45	0.80	4.43	–	–	–	–	–	–	–	–
CCNC(=O)c1nnc(-c2cc(C(C)C)c(O)cc2O)n1-c1ccc(OC2CCN(C(=O)CCNC(=O)[C@@H](CCC(=O)N3CCC(Oc4ccc(-n5c(C(=O)NCC)nnc5-c5cc(C(C)C)c(O)cc5O)cc4)CC3)NC(=O)CCOCCOCCOCCOCCNC(=O)CN3CCN4CCN5CCN(CC3)CC(=O)[O][Lu]([O]C(=O)C4)[O]C(=O)C5)CC2)cc1 [CMP35]	0.74	0.50	3.97	11.87	17.67	2.212	8.776	–	–	–	–	–	–	–	–
CCNC(=O)c1nnc(-c2cc(C(C)C)c(O)cc2O)n1-c1ccc(OC2CCN(C(=O)CCNC(=O)[C@@H](CCC(=O)N3CCC(Oc4ccc(-n5c(C(=O)NCC)nnc5-c5cc(C(C)C)c(O)cc5O)cc4)CC3)NC(=O)CCOCCOCCOCCOCCOCCOCCOCCOCCOCCOCCOCCOCCNC(=O)CN3CCN4CCN5CCN(CC3)CC(=O)[O][Lu]([O]C(=O)C4)[O]C(=O)C5)CC2)cc1 [CMP36]	0.99	0.41	7.34	3.36	8.16	0.45	3.32	–	–	–	–	–	–	–	–
CCNC(=O)c1nnc(-c2cc(C(C)C)c(O)cc2O)n1-c1ccc(OC2CCN(C(=O)CCOCCOCCOCCOCCNC(=O)CN3CCN4CCN5CCN(CC3)CC(=O)[O][Lu]([O]C(=O)C4)[O]C(=O)C5)CC2)cc1 [CMP39]	3.63	3.67	4.25	0.48	0.47	0.41	1.74	–	–	–	–	–	–	–	–
CC(C)c1cc(-c2nnc(O)n2-c2ccc(OC3CCN(C(=O)CCOCCOCCOCCOCCNC(=O)CN4CCN5CCN6CCN(CC4)CC(=O)[O][Lu]([O]C(=O)C5)[O]C(=O)C6)CC3)cc2)c(O)cc1O [CMP40]	5.08	62.28	29.23	0.14	0.01	0.02	0.71	–	–	–	–	–	–	–	–
CCNC(=O)c1nnc(-c2cc(C(C)C)c(O)cc2O)n1-c1ccc(OC2CCN(C(=O)CCOCCOCCOCCOCCOCCOCCOCCOCCOCCOCCOCCOCCNC(=O)CN3CCN4CCN5CCN(CC3)CC(=O)[O][Lu]([O]C(=O)C4)[O]C(=O)C5)CC2)cc1 [CMP41]	5.10	6.34	8.37	0.86	0.69	0.52	4.39	–	–	–	–	–	–	–	–
CC(C)c1cc(-c2nnc(O)n2-c2ccc(OC3CCN(C(=O)CCOCCOCCOCCOCCOCCOCCOCCOCCOCCOCCOCCOCCNC(=O)CN4CCN5CCN6CCN(CC4)CC(=O)[O][Lu]([O]C(=O)C5)[O]C(=O)C6)CC3)cc2)c(O)cc1O [CMP42]	2.23	9.89	26.76	0.26	0.06	0.02	0.57	–	–	–	–	–	–	–	–
CCNC(=O)c1nnc(-c2cc(C(C)C)c(O)cc2O)n1-c1ccc(CN2CCN(C(=O)C[C@H](NC(=O)CCNC(=O)[C@H](CO)NC(=O)[C@H](CO)NC(=O)[C@H](CO)NC(=O)CC[C@H](C(=O)O)N3CCN4CCN5CCN(CC3)CC(=O)[O][Lu]([O]C(=O)C5)[O]C(=O)C4)C(=O)N[C@H](C)C(=O)N3CCN(Cc4ccc(-n5c(C(=O)NCC)nnc5-c5cc(C(C)C)c(O)cc5O)cc4)CC3)CC2)cc1 [CMP44]	3.28	2.34	2.47	1.34	1.88	1.78	4.39	–	–	–	–	–	–	–	–
CCNC(=O)c1nnc(-c2cc(C(C)C)c(O)cc2O)n1-c1ccc(CN2CCN(C(=O)C[C@H](NC(=O)CCNC(=O)[C@@H](CO)NC(=O)[C@@H](CO)NC(=O)[C@@H](CO)NC(=O)CC[C@H](C(=O)O)N3CCN4CCN5CCN(CC3)CC(=O)[O][Lu]([O]C(=O)C5)[O]C(=O)C4)C(=O)N[C@H](C)C(=O)N3CCN(Cc4ccc(-n5c(C(=O)NCC)nnc5-c5cc(C(C)C)c(O)cc5O)cc4)CC3)CC2)cc1 [CMP48]	3.08	2.33	4.87	1.50	1.99	0.95	4.64	–	–	–	–	–	–	–	–
CCNC(=O)c1nnc(-c2cc(C(C)C)c(O)cc2O)n1-c1ccc(CN2CCN(C(=O)CC[C@H](NC(=O)CCNC(=O)[C@@H](CCC(=O)O)NC(=O)[C@@H](CCC(=O)O)NC(=O)[C@@H](CCC(=O)O)NC(=O)COCCOCCNC(=O)CC[C@H](C(=O)O)N3CCN4CCN5CCN(CC3)CC(=O)[O][Lu]([O]C(=O)C5)[O]C(=O)C4)C(=O)N3CCN(Cc4ccc(-n5c(C(=O)NCC)nnc5-c5cc(C(C)C)c(O)cc5O)cc4)CC3)CC2)cc1 [T5]	–	–	–	–	–	–	–	1.74	0.00	3.14	1.08	0.68	0.23	0.16	0.01
CCNC(=O)c1nnc(-c2cc(C(C)C)c(O)cc2O)n1-c1ccc2c(ccn2CCC2CCN(C(=O)CCNC(=O)[C@@H](CCC(=O)O)NC(=O)[C@@H](CCC(=O)O)NC(=O)[C@@H](CCC(=O)O)NC(=O)COCCOCCNC(=O)[C@H](CCCCNC(=O)CC[C@H](C(=O)O)N3CCN4CCN5CCN(CC3)CC(=O)[O][Lu]([O]C(=O)C5)[O]C(=O)C4)NC(=O)CCCc3ccc(I)cc3)CC2)c1 [T7]	–	–	–	–	–	–	–	7.54	4.05	24.70	13.10	1.88	1.01	4.71	0.42
CCNC(=O)c1nnc(-c2cc(C(C)C)c(O)cc2O)n1-c1ccc(OC2CCN(C(=O)CCNC(=O)[C@@H](CCC(=O)N3CCC(Oc4ccc(-n5c(C(=O)NCC)nnc5-c5cc(C(C)C)c(O)cc5O)cc4)CC3)NC(=O)CCNC(=O)[C@@H](CCC(=O)O)NC(=O)[C@@H](CCC(=O)O)NC(=O)[C@@H](CCC(=O)O)NC(=O)COCCOCCNC(=O)[C@H](CCCCNC(=O)CC[C@H](C(=O)O)N(CC)CCN3CCN4CCN(C)CC(=O)[O][Lu]([O]C(=O)C4)[O]C(=O)C3)NC(=O)CCCc3ccc(I)cc3)CC2)cc1 [T12]	–	–	–	–	–	–	–	9.01	5.87	34.00	18.60	3.73	2.03	5.08	0.41
